Data as given in patent US20190071480A1 (Biogen, published 2019).
Numbering of substitutions follows the chain as printed. Values belong to the binder of their own block, whether it stands above or below them.

Assays:
[1] = biological target: T1, extracellular domain of activin receptor type IIB (ActRIIBecd), biotinylated (Homo sapiens (Human), UniProt Q13705 27-117, amino-biotinylated with amine-PEG3-Biotin); test: BIAcore SPR, biotinylated ActRIIBecd on chip; SD ±12.78 nM
T1 construct: immobilised on a streptavidin-coated sensor chip; also called biotinylated ActRIIBecd; extracellular domain of ActRIIB
T1 sequence: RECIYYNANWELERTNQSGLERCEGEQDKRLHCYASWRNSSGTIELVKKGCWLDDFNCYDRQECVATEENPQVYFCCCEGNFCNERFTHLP
Experimental: (§1) Biosensor experiments. In one embodiment, experiments were performed on a BIAcore™ T100/T200 instrument (Pharmacia Biosensor AB) in the multichannel mode (serial flow path involving flow cells 1+2+3+4). Flow rate was 10 μl/min; temperature was 25° C.; and data were recorded at 2.5 points/s. All four segments of a sensor chip CMS were coated with streptavidin (Sigma) to a density of 2000 pg/mm² (2000 resonance units) by the aminocoupling procedure. ActRIIBecd (10 mg) and amine-PEG3-Biotin (10 mg, Pierce, Rockford, Ill.) were dissolved in 200 μl H₂O and 10 mg NaCNBH₃ was added to prepare biotinylated ActRIIBecd. The reaction mixture was heated at 70° C. for 24 h, after that a further 10 mg NaCNBH₃ was added and the reaction was heated at 70° C. for another 24 h. After cooling to room temperature, the mixture was desalted with the spin column (3,000 molecular weight cut off (MWCO)). […] Sensograms were recorded during flow of the analyte (the ActRIIBecd-associated polypeptides (i.e., domains) as previously described) first through flow cell 1 (control) then through flow cell 2 (biotinylated ActRIIBecd). […] The sensograms obtained at 1.11, 3.33, 10, 30, and 90 nM analyte were evaluated for equilibrium binding, association rate, and dissociation rate by using the programs supplied with the instrument (BIA evaluation 2.1; Software Handbook. 1995; Pharmacia Biosensor AB).

[2] = biological target: T1, extracellular domain of activin …; test: BIAcore SPR, biotinylated ActRIIBecd on chip; SD ±12.07 nM
Experimental: as §1

[3] = biological target: T1, extracellular domain of activin …; test: BIAcore SPR, biotinylated ActRIIBecd on chip; SD ±19.51 nM
Experimental: as §1

[4] = biological target: T1, extracellular domain of activin …; test: BIAcore SPR, biotinylated ActRIIBecd on chip; SD ±12.74 nM
Experimental: as §1

[5] = biological target: T1, extracellular domain of activin …; test: BIAcore SPR, biotinylated ActRIIBecd on chip; SD ±13.64 nM
Experimental: as §1

[6] = biological target: T1, extracellular domain of activin …; test: BIAcore SPR, biotinylated ActRIIBecd on chip; SD ±12.89 nM
Experimental: as §1

[7] = biological target: T1, extracellular domain of activin …; test: BIAcore SPR, biotinylated ActRIIBecd on chip; SD ±15.71 nM
Experimental: as §1

[8] = biological target: T1, extracellular domain of activin …; test: BIAcore SPR, biotinylated ActRIIBecd on chip; SD ±16.11 nM
Experimental: as §1

[9] = biological target: T1, extracellular domain of activin …; test: BIAcore SPR, biotinylated ActRIIBecd on chip; SD ±13.42 nM
Experimental: as §1

[10] = biological target: T1, extracellular domain of activin …; test: BIAcore SPR, biotinylated ActRIIBecd on chip; SD ±18.67 nM
Experimental: as §1

[11] = biological target: T1, extracellular domain of activin …; test: BIAcore SPR, biotinylated ActRIIBecd on chip; SD ±13.71 nM
Experimental: as §1

[12] = biological target: T1, extracellular domain of activin …; test: BIAcore SPR, biotinylated ActRIIBecd on chip; SD ±18.14 nM
Experimental: as §1

[13] = biological target: T1, extracellular domain of activin …; test: BIAcore SPR, biotinylated ActRIIBecd on chip; SD ±16.51 nM
Experimental: as §1

[14] = biological target: T1, extracellular domain of activin …; test: BIAcore SPR, biotinylated ActRIIBecd on chip; SD ±16.58 nM
Experimental: as §1

[15] = biological target: T1, extracellular domain of activin …; test: BIAcore SPR, biotinylated ActRIIBecd on chip; SD ±13.03 nM
Experimental: as §1

[16] = biological target: T1, extracellular domain of activin …; test: BIAcore SPR, biotinylated ActRIIBecd on chip; SD ±12.47 nM
Experimental: as §1

[17] = biological target: T1, extracellular domain of activin …; test: BIAcore SPR, biotinylated ActRIIBecd on chip; SD ±11.79 nM
Experimental: as §1

[18] = biological target: T1, extracellular domain of activin …; test: BIAcore SPR, biotinylated ActRIIBecd on chip; SD ±12.76 nM
Experimental: as §1

[19] = biological target: T1, extracellular domain of activin …; test: BIAcore SPR, biotinylated ActRIIBecd on chip; SD ±13.69 nM
Experimental: as §1

B1: Recombinant polypeptide of clones 15 + 21 (designed binder)
chain: VDFSDVGWNDWIVAPPGYHAFYCHGECPFPLADHLNSTNHAIVQTLVNSVNSKIPKACCVPTELSAISMLYLDENEKVVLKNYQDMVVEGCGCR
- Kd [1]: 32.6 nM

B2: Recombinant polypeptide of clones 14 + 19 (designed binder)
chain: B1 chain with S4K, W11H, I12A, T38D, L46K, I54D, I67P, M69P, V78P, E89H
- Kd [2]: 31 nM

B3: Recombinant polypeptide of clones 12 + 16 (designed binder)
chain: AQAKHKQYKRLKSSCKRHPLYVDFSDVGWNDWAVAPPGYHAFYCHGECPFPLADHLNSDNHAIVQTLVNSV
- Kd [3]: 67.4 nM

B4: Recombinant polypeptide of clones 10 + 15 (designed binder)
chain: B3 chain with Y8R, A33I, D59T
- Kd [4]: 31.3 nM

B5: Recombinant polypeptide of clones 8 + 14 (designed binder)
chain: B3 chain with A1G, H5R, Q7G, S25K, W32H, L67K
- Kd [5]: 35.1 nM

B7: Recombinant polypeptide of clones 19 + 8 (designed binder)
chain: NSKDPKACCVPTELSAPSPLYLDENEKPVLKNYQDMVVHGCGCRGQAKRKGYKRLKSSCKRHPLY
- Kd [7]: 33.5 nM

B8: Recombinant polypeptide of clones 12 + 28 (designed binder)
chain: AQAKHKQYKRLKSSCKRHPLYEPLGGARWEAFDVTDAVQSHRRSPRASRKCCLGLRAVTAS
- Kd [8]: 59.1 nM

B9: Recombinant polypeptide of clones 8 + 19 (designed binder)
chain: GQAKRKGYKRLKSSCKRHPLYNSKDPKACCVPTELSAPSPLYLDENEKPVLKNYQDMVVHGCGCR
- Kd [9]: 31.1 nM

B12: Recombinant polypeptide of clones 16 + 29 (designed binder)
chain: VDFSDVGWNDWAVAPPGYHAFYCHGECPFPLADHLNSDNHAIVQTLVNSVEPLGGARWEAFDVTDAVQSHRRSQRASRKCCLVLRAVTAS
- Kd [12]: 58.7 nM

B13: Recombinant polypeptide of clones 14 + 8 (designed binder)
chain: VDFKDVGWNDHAVAPPGYHAFYCHGECPFPLADHLNSDNHAIVQTKVNSVGQAKRKGYKRLKSSCKRHPLY
- Kd [13]: 33.8 nM

B16: Recombinant polypeptide of clones 12 + 30 (designed binder)
chain: AQAKHKQYKRLKSSCKRHPLYTALDGTRGAQGSGGGGGGGGGGGGGGGGGGGGAGRGHGRRGRSRCSRKSLHVDFKELG
- Kd [16]: 59.1 nM

B17: Recombinant polypeptide of clones 10 + 21 (designed binder)
chain: AQAKHKQRKRLKSSCKRHPLYNSKIPKACCVPTELSAISMLYLDENEKVVLKNYQDMVVEGCGCR
- Kd [17]: 27.3 nM

Next, values leading:

- Kd [6]: 54.3 nM
B6: Recombinant polypeptide of clones 29 + 16 (designed binder)
chain: EPLGGARWEAFDVTDAVQSHRRSQRASRKCCLVLRAVTASVDFSDVGWNDWAVAPPGYHAFYCHGECPFPLADHLNSDNHAIVQTLVNSV

- Kd [10]: 57.9 nM
B10: Recombinant polypeptide of clones 28 + 12 (designed binder)
chain: EPLGGARWEAFDVTDAVQSHRRSPRASRKCCLGLRAVTASAQAKHKQYKRLKSSCKRHPLY

- Kd [11]: 61.1 nM
B11: Recombinant polypeptide of clones 30 + 12 (designed binder)
chain: TALDGTRGAQGSGGGGGGGGGGGGGGGGGGGGAGRGHGRRGRSRCSRKSLHVDFKELGAQAKHKQYKRLKSSCKRHPLY

- Kd [14]: 31 nM
B14: Recombinant polypeptide of clones 21 + 15 (designed binder)
chain: NSKIPKACCVPTELSAISMLYLDENEKVVLKNYQDMVVEGCGCRVDFSDVGWNDWIVAPPGYHAFYCHGECPFPLADHLNSTNHAIVQTLVNSV

- Kd [15]: 32.1 nM
B15: Recombinant polypeptide of clones 19 + 14 (designed binder)
chain: B14 chain with I4D, I17P, M19P, V28P, E39H, S48K, W55H, I56A, T82D, L90K

- Kd [18]: 30.2 nM
B18: Recombinant polypeptide of clones 21 + 10 (designed binder)
chain: NSKIPKACCVPTELSAISMLYLDENEKVVLKNYQDMVVEGCGCRAQAKHKQRKRLKSSCKRHPLY

- Kd [19]: 61.7 nM
B19: Recombinant polypeptide of clones 26 + 16 (designed binder)
chain: TYPASPKPMRHSMRSCACCAGGLRNQTGTVVDFSDVGWNDWAVAPPGYHAFYCHGECPFPLADHLNSDNHAIVQTLVNSV
